Laboratory results: US20240368668A1, “SUBSTRATES AND BIOMARKERS OF ADAMTS7” (The Broad Institute, Inc., priority 2021, published 2024)
Square brackets hold non-standard residues; d marks the D form. Ends that are not written are not given here. deamidated = deamidated asparagine; Met(O) = CS(=O)CC[C@H](N)C(=O)O

Target: T1, mouse ADAMTS7 (Mus musculus, UniProt Q68SA9)
T1 construct: Full-length mouse Adamts7 1-1857 (Uniprot Q68SA9, WT or E373Q catalytic mutant); expressed in transfected cells; host or cells: Human Coronary Artery Smooth Muscle Cells (HCA-SMC, Lonza), adenovirus 50 MOI
T1 sequence (Q68SA9 221-1657): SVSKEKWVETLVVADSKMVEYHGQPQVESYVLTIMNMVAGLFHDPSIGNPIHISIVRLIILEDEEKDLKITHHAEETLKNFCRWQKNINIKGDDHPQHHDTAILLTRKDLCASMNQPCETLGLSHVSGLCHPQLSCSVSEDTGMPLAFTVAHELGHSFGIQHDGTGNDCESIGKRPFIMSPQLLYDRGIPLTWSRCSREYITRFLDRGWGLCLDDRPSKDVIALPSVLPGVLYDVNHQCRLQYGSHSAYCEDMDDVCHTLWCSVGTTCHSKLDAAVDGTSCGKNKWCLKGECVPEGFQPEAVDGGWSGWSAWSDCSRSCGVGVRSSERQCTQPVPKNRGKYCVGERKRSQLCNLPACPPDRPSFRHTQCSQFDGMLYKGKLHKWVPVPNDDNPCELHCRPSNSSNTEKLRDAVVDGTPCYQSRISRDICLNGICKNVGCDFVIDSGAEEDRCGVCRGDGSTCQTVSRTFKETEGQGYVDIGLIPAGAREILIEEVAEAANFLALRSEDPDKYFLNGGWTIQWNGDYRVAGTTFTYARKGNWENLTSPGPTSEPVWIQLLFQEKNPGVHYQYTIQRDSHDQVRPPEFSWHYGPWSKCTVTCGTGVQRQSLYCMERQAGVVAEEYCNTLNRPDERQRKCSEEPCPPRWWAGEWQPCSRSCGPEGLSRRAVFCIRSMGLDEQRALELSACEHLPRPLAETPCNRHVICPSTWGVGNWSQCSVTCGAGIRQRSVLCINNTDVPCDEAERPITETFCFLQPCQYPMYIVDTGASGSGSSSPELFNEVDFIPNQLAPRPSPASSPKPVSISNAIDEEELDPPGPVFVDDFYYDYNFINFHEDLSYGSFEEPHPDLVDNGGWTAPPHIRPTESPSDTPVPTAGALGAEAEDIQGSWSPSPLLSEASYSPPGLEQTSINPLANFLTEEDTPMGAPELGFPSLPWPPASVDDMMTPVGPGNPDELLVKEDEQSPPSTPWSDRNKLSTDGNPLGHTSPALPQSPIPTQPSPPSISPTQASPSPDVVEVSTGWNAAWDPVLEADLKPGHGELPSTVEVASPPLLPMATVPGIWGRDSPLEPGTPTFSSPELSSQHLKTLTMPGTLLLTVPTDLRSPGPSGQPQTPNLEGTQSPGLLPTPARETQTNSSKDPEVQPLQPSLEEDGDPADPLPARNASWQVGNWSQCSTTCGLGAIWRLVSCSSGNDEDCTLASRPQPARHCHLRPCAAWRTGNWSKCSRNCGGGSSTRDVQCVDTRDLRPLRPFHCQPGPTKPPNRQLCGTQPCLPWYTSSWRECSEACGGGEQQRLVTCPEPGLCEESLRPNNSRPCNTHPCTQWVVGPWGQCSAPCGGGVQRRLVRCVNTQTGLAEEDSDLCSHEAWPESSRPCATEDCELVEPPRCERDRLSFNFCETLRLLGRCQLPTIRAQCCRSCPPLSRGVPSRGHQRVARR
Assay: TMT10 TAILS N-terminomics, SMC1 experiment (Ad-mADAMTS7 WT vs EQ vs Luc, technical replicates, trypsin digest)
Assay type: cell-based
Details: TAILS neo-N-terminal peptide abundance; log fold change, Ad-mADAMTS7 WT over Luc
How it was run: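 Full-length mouse ADAMTS7 (WT or E373Q mutant, C-terminal 3xFLAG) or luciferase was transduced via adenovirus, 50 MOI, into HCA-SMC (SMC1, SMC2) or HUVEC. SMC1: pooled media, technical triplicates 400 ug; SMC2: process triplicates 300 ug; HUVEC: process triplicates 200 ug, bFGF2 10 ng/ml.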

| logFC.mWT.over.Lux | Substance |
| --- | --- |
| 0.87 | POSTN_790 (FIEGGDGHLFEDEEIKR; listed as Homo sapiens) |
| 1.29 | MAP4_815 (AVASTGPSSR; listed as Homo sapiens) |
| 3.83 | PAPPA_41 (AAGPATCATR; listed as Homo sapiens) |
| 0.63 | ECM1_43 (YAAPPSPPLSR; listed as Homo sapiens) |
| 0.84 | COL1A2_731 (AAGQPGAKGER; listed as Homo sapiens) |
| 1.11 | MAP1B_1065 (LTTPTKQLGAQSPGR; listed as Homo sapiens) |
| 1.08 | CLEC11A_50 (HLQEALGLPAGR; listed as Homo sapiens) |
| 2.23 | OS9_55 (SQSSDVVIVSSKYKQR; listed as Homo sapiens) |
| 2.56 | COL1A2_960 (AGAPGPHGPVGPAGKHGNR; listed as Homo sapiens) |
| 1.75 | CDC37_43 (FQKEKEELDR; listed as Homo sapiens) |
| 0.87 | COL5A1_544 (SQAQAILQQAR; listed as Homo sapiens) |
| 2.04 | MAN2A1_51 (LQEKIDHLER; listed as Homo sapiens) |
| 1.10 | COL8A1_90 (MKEIQPAPR; listed as Homo sapiens) |
| 2.25 | NUCB1_389 (LQQAVLHMEQR; listed as Homo sapiens) |
| 1.12 | COL1A2_389 (SAGPPGPPGLR; listed as Homo sapiens) |
| 1.77 | COL4A2_71 (YNGPPGLQGFPGLQGR; listed as Homo sapiens) |
| 1.77 | POSTN_754 (IITGPEIKYTR; listed as Homo sapiens) |
| 1.43 | MGAT4B_28 (LSGQKGDVVDVYQR; listed as Homo sapiens) |
| 2.02 | CDH11_467 (HQEAKVPVAIR; listed as Homo sapiens) |
| 2.23 | COL1A2_1127 (SLRPKDYEVDATLKSLNNQIETLLTPEGSR; listed as Homo sapiens) |
| 1.27 | COL1A2_681 (VGAPGPAGATGDR; listed as Homo sapiens) |
| 2.55 | COL1A2_80 (QYDGKGVGLGPGPMGLMGPR; listed as Homo sapiens) |
| 1.46 | COL1A2_305 (LTGAKGAAGLPGVAGAPGLPGPR; listed as Homo sapiens) |
| 1.00 | PDLIM4_104 (IDPEIQDGSPTTSR; listed as Homo sapiens) |
| 1.18 | COL1A2_630 (VGTAGPSGPSGLPGER; listed as Homo sapiens) |
| 3.96 | NID2_291 (HSSVPLGR; listed as Homo sapiens) |

| logFC.mWT.over.Lux | Substance |
| --- | --- |
| 1.17 | COL1A2_425 (ASGPAGVR; listed as Homo sapiens) |
| 1.51 | POLR3G_88 (LFCSHWSHIPGFK; listed as Homo sapiens) |
| 1.10 | POSTN_807 (LLQGDTPVR; listed as Homo sapiens) |
| 1.66 | COL1A2_113 (FQGPAGEPGEPGQTGPAGAR; listed as Homo sapiens) |
| 6.62 | PXDN_1341 (SYQEDKPTKKTR; listed as Homo sapiens) |
| 1.44 | MAP4_816 (VASTGPSSR; listed as Homo sapiens) |
| 3.48 | COL1A2_866 (LLGAPGILGLPGSR; listed as Homo sapiens) |
| 5.97 | COL4A2_172 (YALPKEER; listed as Homo sapiens) |
| 3.51 | COL1A2_270 (VGNAGPAGPAGPR; listed as Homo sapiens) |
| 2.30 | COL1A2_1037 (HHGDQGAPGSVGPAGPR; listed as Homo sapiens) |
| 1.09 | COL1A2_91 (GPMGLMGPR; listed as Homo sapiens) |
| 4.88 | PXDN_1393 (QKTITDLR; listed as Homo sapiens) |
| 1.13 | PSAP_171 (F[Met(O)]ANIPLLLYPQDGPR; listed as Homo sapiens) |
| 3.35 | NID2_951 (YAYPGAR; listed as Homo sapiens) |
| 2.58 | NID2_467 (LEDNIGSNTEVFTYNAANKETCEHNHR; listed as Homo sapiens) |
| 4.80 | NID2_374 (VGGPDLKGQVEPWDER; listed as Homo sapiens) |
| 2.67 | OS9_54 ([code q]SQSSDVVIVSSKYKQR; also: modified N-terminal Gln; listed as Homo sapiens) |
| 2.29 | POSTN_413 (FSDDTLSMDQR; listed as Homo sapiens) |
| 2.23 | MMP1_24 (LETQEQDVDLVQKYLEKYYNLKN(deamidated)DGR; listed as Homo sapiens) |
| 4.76 | NUCB1_317 (FLASTQR; listed as Homo sapiens) |
| 1.51 | COL1A2_1028 (LQGLPGIAGHHGDQGAPGSVGPAGPR; listed as Homo sapiens) |
| 1.41 | COL18A1_1505 (LQPPVVQLHDSNPYPR; listed as Homo sapiens) |
| 1.63 | LTBP2_1602 (EAGVHFR; listed as Homo sapiens) |
| 1.70 | NUCB1_228 (LKEVWEELDGLDPNR; listed as Homo sapiens) |
| 3.60 | PPP1R18_295 (LSETLTR; listed as Homo sapiens) |
